Read-outs that look alike come from different tables or passages of the source.
T1: mouse NKp46 (mouse, UniProt Q8C567 17-325)
T1 construct: whole, on cells
T1 sequence (looked up): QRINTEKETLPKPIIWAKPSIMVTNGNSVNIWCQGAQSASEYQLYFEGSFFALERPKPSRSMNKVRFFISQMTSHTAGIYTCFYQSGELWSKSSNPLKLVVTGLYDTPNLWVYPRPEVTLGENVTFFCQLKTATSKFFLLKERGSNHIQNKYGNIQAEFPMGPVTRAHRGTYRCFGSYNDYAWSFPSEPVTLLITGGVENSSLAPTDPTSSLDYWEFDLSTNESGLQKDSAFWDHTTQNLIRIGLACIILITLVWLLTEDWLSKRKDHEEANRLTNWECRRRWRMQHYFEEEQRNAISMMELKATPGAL


What was measured:
human NKp46 [1] = biological target: T2, human NKp46 (human, UniProt O76036 22-304); test: flow cytometry, HEK293F cells transfected with human NKp46
T2 construct: also called CD335; NCR1
T2 sequence (O76036 22-304 Q82K): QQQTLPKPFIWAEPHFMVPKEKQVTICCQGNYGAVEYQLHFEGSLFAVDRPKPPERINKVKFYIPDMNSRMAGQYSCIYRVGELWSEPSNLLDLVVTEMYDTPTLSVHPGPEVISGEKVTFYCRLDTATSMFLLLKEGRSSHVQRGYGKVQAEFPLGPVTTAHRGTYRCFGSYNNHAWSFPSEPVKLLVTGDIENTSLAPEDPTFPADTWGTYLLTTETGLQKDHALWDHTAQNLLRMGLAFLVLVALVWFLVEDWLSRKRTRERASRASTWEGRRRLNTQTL
Protocol: (§1) Binding of NKp46-binding polypeptides formatted as VHH-Fc fusion proteins was assessed by flow cytometry. An IgG1-Fc lacking a hinge, or a homodimeric Fc (FIG. 1I-1J) was used (the Fc lacking a hinge is annotated as Fc*). HEK293F cells were transiently transfected with a plasmid encoding full-length human NKp46, cynomolgus NKp46, or mouse NKp46, followed by an IRES and GFP. Transfected cells expressing NKp46 and GFP were used to measure binding of the polypeptides. The transfected cells were plated in a 96-well plate at 30,000 cells per well in FACS buffer (PBS, 1% BSA, 0.1% NaN₃, pH 7.4). Untransfected HEK293F cells were used as a NKp46-negative control and plated at 30,000 cells per well in a separate plate. Test polypeptides were then diluted to two times the final concentration of 1000 nM, and a 3-, 4-, or 5-fold, serial dilution was made. A final column was left with only FACS buffer as a secondary-only control. Test article dilutions were added to an equal volume of cells, and assay plates were incubated for 30 minutes at 4° C. After washing twice with 150 μL. of FACS buffer per well, the cells were resuspended in FACS buffer with α-hFc-647 secondary diluted 1:1000-2000. Assay plates were then left to incubate at 4° C. for 20-30 minutes. After one additional wash with 150 μL of FACS buffer, bound antibody was detected by flow cytometry. Flow cytometric detection was performed on an Intellicyt iQue Plus or Accuri iQue. NKp46 transfected cells were gated on as GFP positive, and polypeptide binding was measured as median fluorescence at 647 nm.

human NKp46 [2] = biological target: T2, human NKp46; test: flow cytometry on HEK-293F cells transfected with full-length human NKp46, bivalent VHH with homodimeric Fc, anti-hFc-647 secondary
Protocol: as §1, with “After washing twice with 150 μL. of FACS buffer per well, the cells were resuspended in FACS buffer with α-hFc-647 secondary diluted 1:1000-2000. Assay plates were then left to incubate at 4° C. for 20-30 minutes.” left out, “Flow cytometric detection was performed on an Intellicyt iQue Plus or Accuri iQue.” left out

human NKp46 [3] = biological target: T2, human NKp46; test: flow cytometry, HEK293F cells transfected with human NKp46; Table 3 experiment; HEK-293 transfected with human NKp46
Protocol: as §1, with “After washing twice with 150 μL. of FACS buffer per well, the cells were resuspended in FACS buffer with α-hFc-647 secondary diluted 1:1000-2000. Assay plates were then left to incubate at 4° C. for 20-30 minutes.” left out, “Flow cytometric detection was performed on an Intellicyt iQue Plus or Accuri iQue.” left out

human NKp46 [4] = biological target: T2, human NKp46; test: flow cytometry, HEK293F cells transfected with human NKp46; remark: listed apart in the source
Protocol: as §1

cynomolgus NKp46 [5] = biological target: T3, cynomolgus NKp46 (cynomolgus monkey, UniProt Q95JB9 22-306); test: flow cytometry, HEK293F cells transfected with cyno NKp46
T3 construct: also called cyno NKp46; cynomolgus monkey NKp46
T3 sequence (Q95JB9 22-306 limits assumed): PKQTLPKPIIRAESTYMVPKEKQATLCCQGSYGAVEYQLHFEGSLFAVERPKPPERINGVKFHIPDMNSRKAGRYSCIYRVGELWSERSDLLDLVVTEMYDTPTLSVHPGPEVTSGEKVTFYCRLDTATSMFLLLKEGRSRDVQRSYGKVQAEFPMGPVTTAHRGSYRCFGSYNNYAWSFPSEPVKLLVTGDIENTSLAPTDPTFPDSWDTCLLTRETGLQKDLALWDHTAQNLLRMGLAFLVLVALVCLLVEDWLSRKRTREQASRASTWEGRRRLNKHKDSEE
Protocol: as §1

mouse NKp46 [6] = biological target: T1, mouse NKp46; test: flow cytometry, HEK293F cells transfected with mouse NKp46
Protocol: as §1

cynomolgus NKp46 [7] = biological target: T3, cynomolgus NKp46; test: flow cytometry, HEK293F cells transfected with cyno NKp46; remark: listed apart in the source
Protocol: as §1

mouse NKp46 [8] = biological target: T1, mouse NKp46; test: flow cytometry, HEK293F cells transfected with mouse NKp46; remark: listed apart in the source
Protocol: as §1

mouse NKp46 [9] = biological target: T1, mouse NKp46; test: flow cytometry on HEK-293F cells transfected with full-length mouse NKp46, anti-hFc-647 secondary
Protocol: as §1, with “After washing twice with 150 μL. of FACS buffer per well, the cells were resuspended in FACS buffer with α-hFc-647 secondary diluted 1:1000-2000. Assay plates were then left to incubate at 4° C. for 20-30 minutes.” left out, “Flow cytometric detection was performed on an Intellicyt iQue Plus or Accuri iQue.” left out

IL-2 receptor = IL-2 receptor (human); test: cell-based or functional assay

Row | Binder | Kd (human NKp46 [1]) [nM] | EC50 (read off the curve) (human NKp46 [2]) [nM] | Kd (human NKp46 [3]) [nM] | Bmax (MFI) (human NKp46 [4]) | Kd (human NKp46 [4]) [nM] | Bmax (MFI) (cynomolgus NKp46 [5]) | Kd (cynomolgus NKp46 [5]) [nM] | Bmax (MFI) (human NKp46 [1]) | Bmax (MFI) (mouse NKp46 [6]) | Kd (mouse NKp46 [6]) [nM] | Bmax (MFI) (cynomolgus NKp46 [7]) | Kd (cynomolgus NKp46 [7]) [nM] | Bmax (MFI) (mouse NKp46 [8]) | Kd (mouse NKp46 [8]) [nM] | EC50 (read off the curve) (mouse NKp46 [9]) [nM] | pSTAT5 EC50 on CD56brightCD16- NK cells (IL-2 receptor) [nM] | pSTAT5 EC50 on CD56dimCD16+ NK cells and total NK cells (IL-2 receptor) [nM]
1 | NKp46-hz5D7v17-Fc (Fc fusion) EVQLVESGGGEVQPGGSLRLSCAASGRTFASAAMGWFRQAPGKEREFVAAISRSDDTYYAESVKGRFTISRDNAKNTVYLQMSSLRAEDTAVYYCAAVVPTYGSNIYVHSAAYNYWGQGTLVTVRPDKTHTCPPCPAPGGPSVFLFPPKPKDTLMISRTPEVTCVVVDVSHEDPEVKFNWYVDGVEVHNAKTKPREEQYNSTYRVVSVLTVLHQDWLNGKEYKCKVSNKALPAPIEKTISKAKGQPREPQVYTLPPSRDELTKNQVSLTCLVKGFYPSDIAVEWESNGQPENNYKTTPPVLDSDGSFFLYSKLTVDKSRWQQGNVFSCSVMHEALHNHYTQKSLSLSPG | 0.295 | ~0.3 | – | – | – | – | – | – | – | – | – | – | – | – | – | – | –
2 | NKp46-hz5D7v3-Fc* (Fc fusion, VHH-Fc fusion with an IgG1 Fc lacking a hinge (Fc*); also called NKp46-bz5D7v3-Fc*) EVQLVESGGGEVQPGGSLRLSCAASGRTFASAAMGWFRQAPGKEREFVAAISRSDDTYYAESVKGRFTISRDNAKNTVYLQMSSLRAEDTAVYYCAAVVPTYGNNIYVHSAAYNYWGQGTLVTVKPGGGGPSVFLFPPKPKDTLMISRTPEVTCVVVDVSHEDPEVKFNWYVDGVEVHNAKTKPREEQYNSTYRVVSVLTVLHQDWLNGKEYKCKVSNKALPAPIEKTISKAKGQPREPQVYTLPPSRDELTKNQVSLTCLVKGFYPSDIAVEWESNGQPENNYKTTPPVLDSDGSFFLYSKLTVDKSRWQQGNVFSCSVMHEALHNHYTQKSLSLSPG | – | – | 0.511 | 149000 | 0.177 | 51800 | 0.726 | 1.27e+06 | 1.17e+06 | 0.685 | 19800 | 0.773 | 56500 | 0.313 | – | – | –
3 | NKp46-hz5D7v14-Fc* (Fc fusion, VHH-Fc fusion with an IgG1 Fc lacking a hinge (Fc*)) EVQLVESGGGEVQPGGSLRLSCAASGRTFASAAMGWFRQAPGKEREFVAAISRSDDTYYAESVKGRFTISRDNAKNTVYLQMSSLRAEDTAVYYCAAVVPTYGSSIYVHSAAYNYWGQGTLVTVKPGGGGPSVFLFPPKPKDTLMISRTPEVTCVVVDVSHEDPEVKFNWYVDGVEVHNAKTKPREEQYNSTYRVVSVLTVLHQDWLNGKEYKCKVSNKALPAPIEKTISKAKGQPREPQVYTLPPSRDELTKNQVSLTCLVKGFYPSDIAVEWESNGQPENNYKTTPPVLDSDGSFFLYSKLTVDKSRWQQGNVFSCSVMHEALHNHYTQKSLSLSPG | – | – | – | 138000 | 0.158 | – | – | – | – | – | 14300 | 0.252 | 11300 | 6.51 | ~8 | – | –
4 | NKp46-hz5D7v11-Fc* (Fc fusion, VHH-Fc fusion with an IgG1 Fc lacking a hinge (Fc*)) EVQLVESGGGEVQPGGSLRLSCAASGRTFASAAMGWFRQAPGKEREFVAAISRSDDTYYADSVKGRFTISRDNAKNTVYLQMSSLRAEDTAVYYCAAVVPTYGSNIYVYSAAYNYWGQGTLVTVKPGGGGPSVFLFPPKPKDTLMISRTPEVTCVVVDVSHEDPEVKFNWYVDGVEVHNAKTKPREEQYNSTYRVVSVLTVLHQDWLNGKEYKCKVSNKALPAPIEKTISKAKGQPREPQVYTLPPSRDELTKNQVSLTCLVKGFYPSDIAVEWESNGQPENNYKTTPPVLDSDGSFFLYSKLTVDKSRWQQGNVFSCSVMHEALHNHYTQKSLSLSPG | 0.189 | – | – | – | – | 52300 | 1.84 | 1.05e+06 | 723000 | 1.7 | – | – | – | – | ~2 | – | –
5 | hz5D7v17-Fc xELL-Hole; and hz5D7v17-Fc xELL-Knob-IL2-T3A-H16A-E61R-P65R-D84Y-C125S (cx11314) (Fc fusion) chain 1: EVQLVESGGGEVQPGGSLRLSCAASGRTFASAAMGWFRQAPGKEREFVAAISRSDDTYYAESVKGRFTISRDNAKNTVYLQMSSLRAEDTAVYYCAAVVPTYGSNIYVHSAAYNYWGQGTLVTVRPGGGGDKTHTCPPCPAPGGPSVFLFPPKPKDTLMISRTPEVTCVVVDVSHEDPEVKFNWYVDGVEVHNAKTKPREEQYNSTYRVVSVLTVLHQDWLNGKEYKCKVSNKALPAPIEKTISKAKGQPREPQVYTLPPCRDELTKNQVSLWCLVKGFYPSDIAVEWESNGQPENNYKTTPPVLDSDGSFFLYSKLTVDKSRWQQGNVFSCSVMHEALHNHYTQKSLSLSPGGSGGSAPASSSTKKTQLQLEALLLDLQMILNGINNYKNPKLTRMLTFKFYMPKKATELKHLQCLERELKRLEEVLNLAQSKNFHLRPRYLISNINVIVLELKGSETTFMCEYADETATIVEFLNRWITFSQSIISTLT chain 2: EVQLVESGGGEVQPGGSLRLSCAASGRTFASAAMGWFRQAPGKEREFVAAISRSDDTYYAESVKGRFTISRDNAKNTVYLQMSSLRAEDTAVYYCAAVVPTYGSNIYVHSAAYNYWGQGTLVTVRPGGGGDKTHTCPPCPAPGGPSVFLFPPKPKDTLMISRTPEVTCVVVDVSHEDPEVKFNWYVDGVEVHNAKTKPREEQYNSTYRVVSVLTVLHQDWLNGKEYKCKVSNKALPAPIEKTISKAKGQPREPQVCTLPPSRDELTKNQVSLSCAVKGFYPSDIAVEWESNGQPENNYKTTPPVLDSDGSFFLVSKLTVDKSRWQQGNVFSCSVMHEALHNRYTQKSLSLSPGK | – | – | – | – | – | – | – | – | – | – | – | – | – | – | – | < 0.08 | < 0.4
